Measurements from publication PMC9482650, “Quantitative fragmentomics allow affinity mapping of interactomes” (Nature Communications, 2022).

T1: LIN7C, Q9NUP9
T1 sequence (Q9NUP9 88-185, limits assumed, looked up): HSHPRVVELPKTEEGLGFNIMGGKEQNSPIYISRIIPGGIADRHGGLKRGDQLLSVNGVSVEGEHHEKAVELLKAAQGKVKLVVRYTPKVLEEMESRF

T2: RHPN1, Q8TCX5
T2 sequence (Q8TCX5 508-602, limits assumed, looked up): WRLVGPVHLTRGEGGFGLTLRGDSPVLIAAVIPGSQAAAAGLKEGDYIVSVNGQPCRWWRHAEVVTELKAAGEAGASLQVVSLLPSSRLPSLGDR

T3: DLG3_3, Q92796
T3 sequence (Q92796 374-475, limits assumed, looked up): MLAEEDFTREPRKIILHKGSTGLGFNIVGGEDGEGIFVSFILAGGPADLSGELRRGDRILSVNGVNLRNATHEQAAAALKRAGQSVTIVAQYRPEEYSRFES

T4: SHANK1, Q9Y566
T4 sequence (Q9Y566 658-767, limits assumed, looked up): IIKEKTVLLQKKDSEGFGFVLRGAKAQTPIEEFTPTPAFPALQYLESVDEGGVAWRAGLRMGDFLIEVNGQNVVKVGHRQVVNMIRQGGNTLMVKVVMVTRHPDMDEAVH

T5: GRIP1_4, Q9Y3R0
T5 sequence (Q9Y3R0 467-571, limits assumed, looked up): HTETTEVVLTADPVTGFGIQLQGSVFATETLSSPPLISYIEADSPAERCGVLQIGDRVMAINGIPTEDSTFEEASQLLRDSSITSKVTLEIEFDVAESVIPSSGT

T6: MPDZ_12, O75970
T6 sequence (O75970 1857-1958, limits assumed, looked up): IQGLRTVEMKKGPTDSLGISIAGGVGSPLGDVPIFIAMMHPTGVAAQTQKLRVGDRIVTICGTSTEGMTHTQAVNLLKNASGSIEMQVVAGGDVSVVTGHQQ

T7: SIPA1L2, Q9P2F8
T7 sequence (Q9P2F8 945-1036, limits assumed, looked up): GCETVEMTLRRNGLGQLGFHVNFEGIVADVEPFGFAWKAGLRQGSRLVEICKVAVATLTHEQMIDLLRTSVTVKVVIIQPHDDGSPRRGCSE

T8: PARD3B_1, Q8TEW8
T8 sequence (Q8TEW8 196-299, limits assumed, looked up): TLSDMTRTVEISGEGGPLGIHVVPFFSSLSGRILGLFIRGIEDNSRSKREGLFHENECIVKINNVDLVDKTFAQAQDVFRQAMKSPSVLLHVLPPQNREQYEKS


Assays:
Test in all cases: holdup assay
Set-up in all cases: key: below the threshold = too weak to quantify, mostly under pKd 3.1 to 4
Details in all cases: plain residues with an end cap or a label only (N-terminal biotin on a linker: ado-ado)
[1] = biological target: T1, LIN7C, Q9NUP9
[2] = biological target: ARHGEF12, Q9NZN5-2
[3] = biological target: Inadl_2, Q8NI35
[4] = biological target: SNX27, Q96L92
[5] = biological target: MAGI2_6, Q86UL8
[6] = biological target: Inadl_1, Q8NI35
[7] = biological target: GRIP2_4, Q9C0E4
[8] = biological target: SCRIB_3, Q14160
[9] = biological target: T2, RHPN1, Q8TCX5
[10] = biological target: T3, DLG3_3, Q92796
[11] = biological target: NHERF2_2, Q15599
[12] = biological target: T4, SHANK1, Q9Y566
[13] = biological target: NHERF4_4, Q86UT5
[14] = biological target: PTPN3, P26045
[15] = biological target: T5, GRIP1_4, Q9Y3R0
[16] = biological target: HTRA2, O43464
[17] = biological target: DLG1_2, Q12959
[18] = biological target: FRMPD2_1, Q68DX3
[19] = biological target: NHERF4_1, Q86UT5-2
[20] = biological target: Inadl_6, Q8NI35
[21] = biological target: T6, MPDZ_12, O75970
[22] = biological target: FRMPD3, Q5JV73
[23] = biological target: GORASP1, Q9BQQ3
[24] = biological target: LNX1_3, Q8TBB1
[25] = biological target: MAGI2_2, Q86UL8
[26] = biological target: T7, SIPA1L2, Q9P2F8
[27] = biological target: LDB3, O75112
[28] = biological target: GRID2IP_2, A4D2P6
[29] = biological target: T8, PARD3B_1, Q8TEW8

Chain of Inadl_1, Q8NI35 (Q8NI35 113-229): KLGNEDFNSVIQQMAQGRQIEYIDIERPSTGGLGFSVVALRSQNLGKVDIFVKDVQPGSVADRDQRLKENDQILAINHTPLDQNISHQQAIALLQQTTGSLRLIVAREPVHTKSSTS
Chain of FRMPD3, Q5JV73 (Q5JV73 12-100): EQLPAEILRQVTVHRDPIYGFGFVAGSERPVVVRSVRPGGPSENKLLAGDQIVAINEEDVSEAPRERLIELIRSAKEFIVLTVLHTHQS
Chain of HTRA2, O43464 (O43464 355-458): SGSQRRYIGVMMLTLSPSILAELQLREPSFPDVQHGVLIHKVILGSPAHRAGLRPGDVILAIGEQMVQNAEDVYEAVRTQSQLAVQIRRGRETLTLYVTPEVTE
Chain of NHERF4_4, Q86UT5 (Q86UT5 464-550): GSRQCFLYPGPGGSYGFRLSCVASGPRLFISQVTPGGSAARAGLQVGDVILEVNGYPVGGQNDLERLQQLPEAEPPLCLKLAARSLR
Chain of NHERF4_1, Q86UT5-2 (Q86UT5 other isoform, or with tags, fused parts or gaps): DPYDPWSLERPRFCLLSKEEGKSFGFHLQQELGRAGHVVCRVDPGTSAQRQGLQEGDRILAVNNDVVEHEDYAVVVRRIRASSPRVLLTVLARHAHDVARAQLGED
Chain of MAGI2_6, Q86UL8 (Q86UL8 1141-1229): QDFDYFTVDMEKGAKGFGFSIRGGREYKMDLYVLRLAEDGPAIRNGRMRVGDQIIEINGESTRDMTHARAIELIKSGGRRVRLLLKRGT
Chain of NHERF2_2, Q15599 (Q15599 142-238): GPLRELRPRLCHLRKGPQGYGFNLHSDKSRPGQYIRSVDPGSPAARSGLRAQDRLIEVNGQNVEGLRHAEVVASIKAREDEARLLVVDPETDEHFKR
Chain of FRMPD2_1, Q68DX3 (Q68DX3 770-861): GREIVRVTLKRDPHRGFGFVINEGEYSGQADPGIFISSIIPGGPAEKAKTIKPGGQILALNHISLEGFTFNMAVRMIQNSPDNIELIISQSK
Chain of GRID2IP_2, A4D2P6 (A4D2P6 272-370): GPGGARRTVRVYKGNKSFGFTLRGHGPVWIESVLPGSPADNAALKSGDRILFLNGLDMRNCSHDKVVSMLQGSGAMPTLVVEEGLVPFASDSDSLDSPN
Chain of Inadl_2, Q8NI35 (Q8NI35 238-335): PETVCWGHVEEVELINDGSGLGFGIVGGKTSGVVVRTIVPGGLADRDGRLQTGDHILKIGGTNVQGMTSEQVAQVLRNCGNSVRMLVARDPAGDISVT
Chain of GORASP1, Q9BQQ3 (Q9BQQ3 1-208): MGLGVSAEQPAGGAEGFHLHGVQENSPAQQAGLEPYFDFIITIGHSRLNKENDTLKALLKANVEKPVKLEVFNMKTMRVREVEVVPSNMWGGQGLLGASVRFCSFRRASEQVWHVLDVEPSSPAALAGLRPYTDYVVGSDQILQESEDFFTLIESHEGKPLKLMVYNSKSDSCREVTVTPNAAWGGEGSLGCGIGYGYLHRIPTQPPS
Chain of MAGI2_2, Q86UL8 (Q86UL8 410-522): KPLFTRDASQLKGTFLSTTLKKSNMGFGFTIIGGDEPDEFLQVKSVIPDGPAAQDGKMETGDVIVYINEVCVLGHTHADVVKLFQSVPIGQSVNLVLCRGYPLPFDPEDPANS
Chain of DLG1_2, Q12959 (Q12959 314-412): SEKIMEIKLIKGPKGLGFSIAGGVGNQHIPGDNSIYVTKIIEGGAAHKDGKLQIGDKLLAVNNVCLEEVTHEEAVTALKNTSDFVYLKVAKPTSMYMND
Chain of ARHGEF12, Q9NZN5-2 (Q9NZN5 other isoform, or with tags, fused parts or gaps): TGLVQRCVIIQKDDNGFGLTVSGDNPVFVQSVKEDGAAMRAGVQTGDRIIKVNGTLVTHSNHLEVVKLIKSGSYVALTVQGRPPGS
Chain of LDB3, O75112 (O75112 1-94): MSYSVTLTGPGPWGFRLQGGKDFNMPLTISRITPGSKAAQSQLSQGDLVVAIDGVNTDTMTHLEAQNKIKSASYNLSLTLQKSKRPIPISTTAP
Chain of GRIP2_4, Q9C0E4 (Q9C0E4 446-548): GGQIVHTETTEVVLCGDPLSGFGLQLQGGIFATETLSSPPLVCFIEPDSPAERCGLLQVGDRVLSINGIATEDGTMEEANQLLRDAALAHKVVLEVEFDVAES
Chain of SCRIB_3, Q14160 (Q14160 999-1103): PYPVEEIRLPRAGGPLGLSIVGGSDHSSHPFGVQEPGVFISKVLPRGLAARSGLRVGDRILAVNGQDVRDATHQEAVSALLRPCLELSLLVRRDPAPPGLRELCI
Chain of PTPN3, P26045 (P26045 505-587): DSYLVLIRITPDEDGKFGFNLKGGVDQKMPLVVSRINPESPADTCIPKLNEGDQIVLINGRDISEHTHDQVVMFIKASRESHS
Chain of Inadl_6, Q8NI35 (Q8NI35 1058-1167): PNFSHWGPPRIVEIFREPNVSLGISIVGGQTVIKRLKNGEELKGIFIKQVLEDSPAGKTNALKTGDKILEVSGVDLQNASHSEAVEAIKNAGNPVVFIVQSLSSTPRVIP
Chain of LNX1_3, Q8TBB1 (Q8TBB1 500-596): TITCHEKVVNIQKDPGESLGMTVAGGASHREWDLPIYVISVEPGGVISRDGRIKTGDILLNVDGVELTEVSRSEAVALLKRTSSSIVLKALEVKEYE

| pKd [1] | pKd [2] | pKd [3] | pKd [4] | pKd [5] | pKd [6] | pKd [7] | pKd [8] | pKd [9] | pKd [10] | pKd [11] | pKd [12] | pKd [13] | pKd [14] | pKd [15] | pKd [16] | pKd [17] | pKd [18] | pKd [19] | pKd [20] | Binder | also measured |
| --- | --- | --- | --- | --- | --- | --- | --- | --- | --- | --- | --- | --- | --- | --- | --- | --- | --- | --- | --- | --- | --- |
| below the threshold | 4.02 | below the threshold | 5.27 | 3.98 | below the threshold | below the threshold | 4.16 | 4.45 | below the threshold | 5.52 | 4.99 | below the threshold | 4.88 | below the threshold | below the threshold | below the threshold | below the threshold | 3.97 | 3.78 | TSQESEDTYL [TBC1D10A, Q9BXI6] | pKd [21]: below the threshold; pKd [22]: 4.39; pKd [23]: below the threshold; pKd [24]: below the threshold; pKd [25]: below the threshold; pKd [26]: below the threshold; pKd [27]: below the threshold; pKd [28]: below the threshold; pKd [29]: 4.58 |
| below the threshold | 4.75 | below the threshold | 3.98 | below the threshold | below the threshold | below the threshold | 3.74 | below the threshold | 4.18 | below the threshold | 3.96 | below the threshold | 4.21 | below the threshold | below the threshold | 5.52 | 3.53 | 3.48 | below the threshold | AKPSRISTVV [IQSEC2, Q5JU85] | pKd [21]: 3.49; pKd [22]: below the threshold; pKd [23]: 4.11; pKd [24]: below the threshold; pKd [25]: 5.23; pKd [26]: below the threshold; pKd [27]: below the threshold; pKd [28]: 3.77; pKd [29]: below the threshold |
| below the threshold | 4.25 | below the threshold | 4.84 | 5.21 | below the threshold | below the threshold | 3.99 | 3.92 | below the threshold | below the threshold | below the threshold | below the threshold | 4.6 | below the threshold | below the threshold | 4.46 | below the threshold | below the threshold | below the threshold | DDENIRTSDV [PLEKHA2, Q9HB19] | pKd [21]: below the threshold; pKd [22]: below the threshold; pKd [23]: below the threshold; pKd [24]: below the threshold; pKd [25]: below the threshold; pKd [26]: below the threshold; pKd [27]: below the threshold; pKd [28]: 4.19; pKd [29]: below the threshold |
| below the threshold | 3.69 | below the threshold | 3.64 | 4.91 | below the threshold | below the threshold | 4.85 | 3.83 | below the threshold | below the threshold | below the threshold | below the threshold | 4.44 | below the threshold | below the threshold | 5.44 | below the threshold | below the threshold | below the threshold | KKMPSIESDV [GRIN2A, Q12879] | pKd [21]: below the threshold; pKd [22]: below the threshold; pKd [23]: below the threshold; pKd [24]: below the threshold; pKd [25]: 4.05; pKd [26]: below the threshold; pKd [27]: below the threshold; pKd [28]: 3.59; pKd [29]: below the threshold |
| below the threshold | below the threshold | below the threshold | 3.94 | below the threshold | below the threshold | below the threshold | below the threshold | below the threshold | below the threshold | below the threshold | below the threshold | below the threshold | below the threshold | below the threshold | below the threshold | below the threshold | 3.53 | below the threshold | below the threshold | PEYLGLDVPV [ERBB2, P04626] | pKd [21]: below the threshold; pKd [22]: 3.78; pKd [23]: below the threshold; pKd [24]: below the threshold; pKd [25]: below the threshold; pKd [26]: below the threshold; pKd [27]: below the threshold; pKd [28]: below the threshold; pKd [29]: below the threshold |
